We go through two molecules from US20170067069A1 (SYNTHETIC GENOMICS, published 2017).

B2: SGT1 (suppressor of G2 allele of skp1), Nannochloropsis gaditana, genome locus Naga_100120 g12 (other)
chain: MEQAQLAFMDEDYATADELFSAYIATHPDDATALVSRAAVHLKLNQPSQALHDAEAAASLKSDFEVAWYRQGVAAFALEDFSRAKEAFMRGRALLGDRPEPQGRRYDVWLRKTTLELGEHDEQGMTVVAEGGRKELRQEEGAKGIEATVPRSQPSPTHPPSSAPAIPAGHVKFQFYQTTSYVTVTILYKGLREEDANVSVQPRHLKVSVGADGDVLFDRALFETVVPEESTSKIFATKIEVKLRKAMEGLTWPELCALSPGAAASVHTVSAPTPDSHATALPSLAQGPATAPSSKPLRPYASTKDWGAVEKEISKELESEKPEGDEALNTLFRDIYAKGSDETRRAMVKSFQTSGGTVLSTNWEEVGKKDYEKEEERKAPEGMEWRKWGV
notes: also called Nannochloropsis SGT1; gene 1852

The target in test [1] is B2. In words: yeast two-hybrid screen, CRD1-117 bait against Nannochloropsis cDNA prey library; growth and blue color on selective media. Here is the method:
The prey library was screened for by mating of the library-containing (prey) strain with each individual bait strain (i.e., a strain expressing CRD1-117) according to the Matchmaker™ Gold Yeast Two-Hybrid System User Manual (Clontech). […] Based on these numbers, it is estimated that more than 10 million interactions were tested.
After subtraction of false positives from the other domain hits, one hit remained which was unique to this domain: the gene encoding SGT1 (SEQ ID NO:27) encoded at N. gaditana genome locus Naga_100120 g12; Genbank Accession AZIL01000354.1. This gene is commonly referred to as “suppressor of G2 allele of skp1” because it was discovered in a genetic suppressor screen aimed at suppressing skp1-4, a mutant with defects in yeast kinetochore function (Hieter et al. 1999 Nature 402:362-363). SGT1 is an essential component of the yeast kinetochore assembly pathway and has been associated to a number of different biological roles in different organisms. Furthermore, mammalian SGT1 is known to interact with an Hsp90 chaperone and melusin, the human homolog of CHORD-3266. Similarly, the Arabidopsis CHORD-3266 homolog, RAR1, is also known to bind Arabidopsis SGT1 (Takahashi et al. (2003) PNAS USA 100:11777-11782). […]

For test [2], the target named is T1, Skp1-7479 (Nannochloropsis Skp1 protein, genome locus Naga_100005 g56) (Nannochloropsis gaditana).
T1 construct: also called SKP-7479
T1 chain: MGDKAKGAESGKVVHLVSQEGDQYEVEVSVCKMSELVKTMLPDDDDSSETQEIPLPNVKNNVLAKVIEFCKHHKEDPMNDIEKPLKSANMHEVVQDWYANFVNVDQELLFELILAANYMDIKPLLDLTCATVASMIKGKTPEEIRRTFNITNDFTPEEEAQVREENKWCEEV
In words: direct yeast two-hybrid assay. The text has this:
(§1) In order to determine whether SGT1 (SEQ ID NO:27) and Skp1 were members of the same pathway, we tested whether Nannochloropsis SGT1 was capable of binding to Nannochloropsis Skp1 by Y2H. Two different Skp1 proteins were identified in Nannochloropsis, SKP1-8611 (polynucleotide SEQ ID NO:9 and polypeptide SEQ ID NO:28) and Skp1-7479 (SEQ ID NO:29 encoded at N. gaditana genome locus Naga_100005 g56, Genbank Accession AZIL01000936). Protein coding sequences were amplified using sequence specific primers for SGT1 (SEQ ID NO:30 and SEQ ID NO:31), SKP-8611 (SEQ ID NO:32 and SEQ ID NO:33), and SKP-7479 (SEQ ID NO:34 and SEQ ID NO:35) and cloned into the prey and bait vectors as described above.

Test [3] addresses T2, SKP1-8611 (Nannochloropsis Skp1 protein) (Nannochloropsis gaditana).
T2 construct: also called SKP-8611
T2 chain: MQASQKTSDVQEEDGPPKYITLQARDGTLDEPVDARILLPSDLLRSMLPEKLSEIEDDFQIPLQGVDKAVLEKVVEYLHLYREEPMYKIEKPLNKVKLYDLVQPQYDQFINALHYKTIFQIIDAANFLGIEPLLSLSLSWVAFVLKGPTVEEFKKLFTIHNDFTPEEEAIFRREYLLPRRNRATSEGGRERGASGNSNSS
Nature of the test: direct yeast two-hybrid assay.
From the text: as §1

B1: CRD1-117 (fragment of CHORD-3266 protein, amino acids 1-117) (other)
chain: MKLYVHYEEAGQDEKALTLKLTLPKSWAEQPLLQVLELFIESYNKKKTGLPPLDKDFVHMEKAGGVILPVGNIVSDMLSDRDDLYIRSGPGPARGKIAHLSSPPNAHASSESSTGLL
notes: Used as bait in the yeast two-hybrid screen, cloned into bait vector pGBKT7 (Clontech); also called CHORD domain fragment 1-117
For the molecule B1, the binding result in test [1] is on record as “binds”.
On to B2, for which the binding result in test [2] and in test [3] was “binds” each time.
